From paper PMC5167558 (Biochemistry, 2015)

Target: GST-SPAK 63–390 (mouse, UniProt Q9Z1W9 63-390)
Test: pull-down

binding result: binds
B1: His6-SPAK 63–390 (domain or fragment)
chain: not shown
